{"source": "patent US20050282239A1", "about": "“Cell-permeable enzyme activation reporter that can be loaded in a high throughput and gentle manner” (priority 2003, published 2005)", "key": {"[1]": {"target": "T1, PKB (Homo sapiens, UniProt P31749)", "T1 construct": "endogenous in cells; host or cells: HT1080 cells; HT1080/PTEN cells (engineered to over-express wild type PTEN, PKB itself not transfected)", "T1 sequence (P31749 whole entry)": "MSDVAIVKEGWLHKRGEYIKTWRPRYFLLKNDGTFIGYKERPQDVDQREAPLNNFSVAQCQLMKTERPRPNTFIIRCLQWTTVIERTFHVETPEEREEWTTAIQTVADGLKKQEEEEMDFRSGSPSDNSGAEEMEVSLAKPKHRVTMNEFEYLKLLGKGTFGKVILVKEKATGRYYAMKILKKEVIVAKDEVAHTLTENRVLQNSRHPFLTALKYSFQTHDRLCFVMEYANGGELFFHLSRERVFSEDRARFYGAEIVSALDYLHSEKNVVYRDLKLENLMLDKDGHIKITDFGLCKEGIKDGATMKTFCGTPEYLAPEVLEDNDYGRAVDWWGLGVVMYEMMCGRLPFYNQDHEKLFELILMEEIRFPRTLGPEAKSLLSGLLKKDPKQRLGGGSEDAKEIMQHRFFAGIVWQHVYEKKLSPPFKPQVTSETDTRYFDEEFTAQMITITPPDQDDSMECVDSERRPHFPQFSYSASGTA", "experiment": "CACE: intracellular phosphorylation of PKB substrate in HT1080 cells", "format": "cell-based", "excerpt": "Since the properties of F-PKB (SEQ ID NO:17) microinjected into HT1080 cells have been well characterized, experiments were undertaken to compare the fate of F-PKB-C loaded as F-PKB-C-SS-TAT (SEQ ID NO:16) into HT1080 cells to that of the microinjected F-PKB (SEQ ID NO:17). When microinjected, the percentage of phosphorylated F-PKB depended on the relative, steady-state levels of both the kinases and phosphatases. This observation is shown in electrophoretic traces from cells loaded with F-PKB-C-SS-TAT (1 μM) (FIG. 6). A single asterisk denotes the migration time of F-PKB, and a double asterisk denotes the migration time of phosphorylated F-PKB from cells on the day of the experiment.\n(§1) CACE has been previously described (Sims, Meredith et al. 1998; Meredith, Sims et al. 2000; Li, Wu et al. 2001). Briefly, cells were placed on an inverted fluorescence microscope stage (Diaphot 300, Nikon, Japan) and maintained at 37° C. with an objective heater (Bioptechs; Butler, Pa.) prior to lysis unless stated otherwise. The cells were continually washed with ECB maintained at 37° C. (unless otherwise indicated) with a flow rate of 1 ml/min and a total chamber volume of 0.5 ml. The inlet of a capillary (30 μm I.D., 360 μm O.D., 75 cm long) was positioned 10 μm above the cell. The inverted microscope was coupled to a pulsed Nd:YAG laser and a CE system (Sims, 1998). The CACE-based assay was performed as previously described (U, 2001; Meredith, 2000). Cells were always maintained in ECB when analyzed by the CACE.\nCE was performed as described (Sims, Meredith et al. 1998), with the following modifications. The inner walls of the capillaries (30 μm I.D., 360 μm O.D.) were coated with poly(acrylate) (Wang, Hu et al. 2003). The outlet of the capillary was held at a negative potential of 18-21 kV, and the inlet reservoir was held at ground potential. Under these conditions, the current through the capillary was typically ˜36 μA. Solutions of standards were loaded into the capillary by gravitational fluid flow. The loaded volume was calculated from Poiseulle's equation and from contributions by spontaneous fluid displacement and diffusion (Weinberger, 2000; Fishman, 1994; Crank, 1989). To estimate the number of moles of peptide in an unknown solution or within a cell, the peak area from the electrophoretic trace of the solution or the cell was compared to that of a standard of known concentration separated by electrophoresis on the same day. A 1 pL cell volume and 100% peptide recovery was assumed in calculating intracellular peptide concentration (Meredith, Sims et al. 2000; Sims, Meredith et al. 1998). Analytes were detected by laser-induced fluorescence (Sims, Meredith et al. 1998).\nCells were incubated at room temperature for 5 minutes in 1% bovine serum albumin (BSA) in ECB, washed in ECB, and then incubated for 5 minutes at room temperature with a substrate conjugated to TAT(49-57). The cells were then washed with 1% BSA in ECB. Cells loaded with the disulfide conjugate were placed in supplement DMEM (10% FCS, 4 mM L-glutamine, 100 U/mL penicillin and 100 μg/mL streptomycin) and incubated at 37° C. in 5% CO2 for 20 minutes. Cells loaded with the photolabile conjugate were placed in supplemented DMEM and incubated at 37° C. in 5% CO2 for 10 minutes (unless stated otherwise) and were then illuminated with a UV light source for 10 seconds (a radiant energy/unit area of 2 kJ/m^2). The supplemented DMEM was exchanged and the cells were incubated another 10 minutes at 37° C. in 5% CO2. Just prior to analysis the cells were washed into ECB."}, "[2]": {"experiment": "In vitro UVA photocleavage of photolabile conjugate, CE quantification", "format": "physicochemical", "excerpt": "Therefore, we designed a second detachable linker between the TAT(49-57) and the substrate peptide. An Fmoc-aminoethyl photolabile moiety was inserted between the fluorescently-labeled substrate and the TAT(49-57) sequences using standard Fmoc peptide chemistry. The relative order of the different portions of the conjugate was: fluorescein-substrate-PLL-TAT(49-57). Two different substrate peptides were conjugated to TAT(49-57) to form F-PKB-PLL-TAT (SEQ ID NO:18) and F-CamKII-PLL-TAT (SEQ ID NO:19). To determine the time and irradiation intensity needed to photocleave the conjugated peptides, standard solutions (1 nM or 10 μM) of F-PKB-PLL-TAT (SEQ ID NO:18) were illuminated with long-wavelength UV light (UVA) for varying times. The sample was then loaded into a capillary and electrophoresis performed. The concentration of the released substrate peptide was quantified from its fluorescence. At the irradiation intensity used, maximal cleavage of the substrate peptide from the TAT(49-57) sequence was achieved within 20 minutes. […] After a 10 s exposure, 2% of the conjugate was photoreleased. […] The fluorescein was not substantially photobleached by the UVA-induced cleavage since the amount of fluorescent peptide detected after a 4 h irradiation was almost identical to that after 20 min of UVA exposure.\nThe photolabile TAT(49-57) conjugate (e.g., SEQ ID NOs:18 or 19) (1 nM or 10 μM in ECB) was illuminated with ultraviolet A (UVA; 20 mW/cm^2) using a 365 nm light source (UVP Blak-Ray B100AP; Upland, Calif.). […] for the photolabile group was 365 nm. After photo-release, the fluorescent substrate was resolved by electrophoresis and then quantified by CE. Detection wavelengths were: excitation, 488 nm; emission, 505-565 nm.\nA known concentration of the photo-cleavable reporter was placed in an uncapped, shallow vial. The sample was then illuminated with the UV light source for varying times as described above. A small amount of the sample was then removed and the amount of released peptide was quantified using CE. […]"}, "[3]": {"tested_on": "HT1080 cells", "experiment": "CACE single-cell analysis: loading and release of cargo", "format": "cell-based, human"}, "[4]": {"target": "T1, PKB", "experiment": "CACE: intracellular phosphorylation of PKB substrate in HT1080/PTEN cells", "format": "cell-based", "details": "1 μM extracellular, UVA 10 s", "description": "Previous investigators developed cleavable PTD-cargo conjugates by engineering a disulfide linkage between the two domains (Stein, Weiss et al. 1999; Hallbrink, Floren et al. 2001). […] TAT(49-57)(SEQ ID NO:2) was conjugated via a disulfide bond to cysteines added to substrate peptides for CamKII (F-CamKII-C; SEQ ID NO:13) or PKB (F-PKB-C; SEQ ID NO:14), denoted F-CamKII-C-SS-TAT (SEQ ID NO:15) and F-PKB-C-SS-TAT (SEQ ID NO:16), respectively. The TAT(49-57)-Conjugated substrates were incubated with cells (HT1080 or HT1080/PTEN cells) and the contents of the cells were analyzed by the CACE. […]\nCACE has been previously described (Sims, Meredith et al. 1998; Meredith, Sims et al. 2000; Li, Wu et al. 2001). Briefly, cells were placed on an inverted fluorescence microscope stage (Diaphot 300, Nikon, Japan) and maintained at 37° C. with an objective heater (Bioptechs; Butler, Pa.) prior to lysis unless stated otherwise. […] Cells were always maintained in ECB when analyzed by the CACE.\n(§2) CE was performed as described (Sims, Meredith et al. 1998), with the following modifications. […] The loaded volume was calculated from Poiseulle's equation and from contributions by spontaneous fluid displacement and diffusion (Weinberger, 2000; Fishman, 1994; Crank, 1989). […] Analytes were detected by laser-induced fluorescence (Sims, Meredith et al. 1998). […]"}, "[5]": {"tested_on": "CamKII", "experiment": "CACE: intracellular phosphorylation of CamKII substrate in HT1080 cells", "format": "cell-based, human", "description": "To determine whether the detached peptide substrates were in the cytosol and accessible to kinases, the intracellular phosphorylation of the translocated cargo was studied. In the initial experiment, F-CamKII-C-SS-TAT (SEQ ID NO:15) at 750 nM extracellular concentration was loaded into HT1080 cells. The cells were incubated with ionomycin (500 nM) for 15 min to increase the intracellular concentration of free Ca^2+ and activate the CamKII enzyme (Worrell and Frizzell 1991). […] The migration time of the second peak was identical to that of phosphorylated F-CamKII-C loaded into cells. 52+3% (mean±SEM) (n=5) of the F-CamKII-C was phosphorylated as determined by comparison of the peak areas. At least half of the F-CamKII-C was in the cytosol and accessible to the kinase. For these cells the average number of moles per cell was ˜2×10^−20 which is equivalent to a cytosolic concentration of ˜100 nM.\nas §1, §2"}}, "note": "Ends that are not written are not given here."}
{"substance": "Gly Arg Pro Arg Ala Ala Thr Phe Ala Glu Gly (GRPRAATFAEG-NH2; not fully specified (N-terminus); printed as Gly Arg Pro Arg Ala Ala Thr Phe Ala Glu Gly; also: fluorescein label, position not given here) [F-PKB, fluorescein-labeled substrate for protein kinase B]", "values": [{"measurement": "peptide phosphorylated at steady state", "setting": "[1]; microinjected", "result": "approximately 70%"}, {"measurement": "time to steady state of phosphorylation", "setting": "[1]; microinjected", "result": "less than 2 min"}]}
{"substance": "Gly Arg Pro Arg Ala Ala Thr Phe Ala Glu Gly Arg Lys Lys Arg Arg Gln Arg Arg Arg (GRPRAATFAEGRKKRRQRRR-NH2; not fully specified (residue 11, N-terminus); printed as Gly Arg Pro Arg Ala Ala Thr Phe Ala Glu Gly Arg Lys Lys Arg Arg Gln Arg Arg Arg; also: fluorescein, position not given here, photolabile linker, position not given here) [F-PKB-PLL-TAT, fluorescein-PKB substrate-photolabile linker-TAT(49-57)]", "values": [{"measurement": "conjugate photoreleased", "setting": "[2]; 10 s UVA exposure", "result": 2, "unit": "%"}, {"measurement": "time to maximal cleavage of substrate peptide from TAT(49-57)", "setting": "[2]; UVA, 1 nM or 10 μM solution", "result": "≤ 20", "unit": "min"}, {"measurement": "free substrate peptide", "setting": "[2]; without UVA illumination", "result": "no free substrate peptide could be detected"}, {"measurement": "cytoplasmic concentration of free F-PKB", "setting": "[3]; 1 μM 5 min, 30 min incubation, UVA 10 s", "result": "~200", "unit": "nM"}, {"measurement": "average quantity of F-PKB detected per cell", "setting": "[3]; 1 μM 5 min, 30 min incubation, UVA 10 s, n=15", "result": "2e-19 ± 9e-20", "unit": "mol"}, {"measurement": "internalization process into the cytosol", "setting": "[3]; 1 μM, 37° C.", "result": "complete within one hour"}, {"measurement": "total amount of F-PKB detected versus incubation time", "setting": "[3]; 1 μM, 37° C., 5 min adsorption, wash, varying incubation, UVA 10 s", "result": "increased over the initial hour of incubation and then stabilized"}, {"measurement": "amount of F-PKB measured per cell", "setting": "[3]; 1 μM, 4° C.", "result": "reduced"}, {"measurement": "amount of F-PKB measured per cell", "setting": "[3]; 1 μM, 23° C. and 37° C.", "result": "similar"}, {"measurement": "phosphorylation of released F-PKB", "setting": "[4]", "result": "not seen"}, {"measurement": "F-PKB present in the phosphorylated form", "setting": "[1]; 1 μM extracellular, UVA 10 s, n=15", "result": "67±7", "unit": "%"}, {"measurement": "percentage of phosphorylated F-PKB versus incubation time", "setting": "[1]; 1 μM, 37° C.", "result": "did not vary with the incubation time"}, {"measurement": "time scale on which F-PKB is accessible to kinase", "setting": "[1]; 1 μM, 37° C.", "result": "< 30", "unit": "min"}, {"measurement": "phosphorylation of F-PKB", "setting": "[1]; 1 μM, 4° C.", "result": "Essentially no phosphorylation"}, {"measurement": "percentage of phosphorylated F-PKB", "setting": "[1]; 1 μM, 23° C. and 37° C.", "result": "similar"}]}
{"substance": "KKALHRQETVDALCRKKRRQRRR [F-CamKII-C-SS-TAT]", "values": [{"measurement": "average number of moles per cell", "setting": "[3]; 750 nM extracellular, ionomycin-treated cells", "result": "~2e-20", "unit": "mol"}, {"measurement": "cytosolic concentration", "setting": "[3]; 750 nM extracellular, ionomycin-treated cells, 1 pL cell volume assumed", "result": "~100", "unit": "nM"}, {"measurement": "F-CamKII-C phosphorylated (mean±SEM)", "setting": "[5]; 750 nM extracellular, ionomycin 500 nM 15 min, n=5", "result": "52+3%"}]}
{"substance": "KKALHRQETVDALCRKKRRQRRR [F-CamKII-PLL-TAT]", "values": [{"measurement": "average concentration of F-CamKII in the cytosol", "setting": "[3]; 300 nM extracellular", "result": 180, "unit": "nM"}, {"measurement": "detectable F-CamKII per cell", "setting": "[3]; 300 nM extracellular, n=3", "result": "1.8e-19 ± 1.9e-19", "unit": "mol"}, {"measurement": "total F-CamKII phosphorylated", "setting": "[5]; 300 nM extracellular, ionomycin 500 nM 15 min, n=3", "result": "67±17", "unit": "%"}]}
{"substance": "Lys Lys Ala Leu His Arg Gln Glu Thr Val Asp Ala Leu Cys (KKALHRQETVDALC-NH2; not fully specified (N-terminus); printed as Lys Lys Ala Leu His Arg Gln Glu Thr Val Asp Ala Leu Cys; also: fluorescein label, position not given here) [F-CamKII-C, fluorescein-labeled CamKII substrate with added cysteine]", "values": [{"measurement": "phosphorylation in unstimulated cells", "setting": "[5]; HT1080 cells, no constitutive CamKII activity", "result": "little to no phosphorylation"}]}
